This note sets out measurements from article PMC7593965.

This test deals with isolated C-terminal domain of FusB (Pectobacterium carotovorum LMG2410). The test can be described thus: ITC; MicroCal iTC200, 25°C, 10 mM Tris-HCl (pH 7.5)-150 mM NaCl; titrant (FusANTR-GFP, GFP or FerSp) injected in 2 μl steps into FusBCTD, FusBCTD R176K/R177K or TonBCTD in the cell.

Usually Kd stands for the constant that tells how readily two partners part at equilibrium. Higher therefore signals weaker binding. For “N-terminal region of FusA (residues 21 to 66) fused to green fluorescent protein (from UniProt C6DG80 21-66) (domain or fragment)”, the Kd was 57 µM.

The substance “spinach ferredoxin (from UniProt P00221 51-147) (natural protein)” registered a Kd of 8.7 µM.
